Assay results published in US20120207673A1.

What was measured:
protein A [1] = target: protein A (UniProt P38507); experiment: phage ELISA on coated protein A; heat/cool assay, % of untreated sample (n = 2)
protein A [2] = target: protein A (UniProt P38507); experiment: phage ELISA on coated protein A; heat/cool assay, % of untreated sample

Substance	Retained binding to protein A (%) (protein A [1])	Retained binding to protein A (%) (protein A [2])
DP47 VH T28D + YA_32/33_DD	76.1	
DP47 VH T28D + SYA_31-33_DDD	74.9	
DP47 VH S35D + YA_32/33_DD		70.4
DP47 VH S35D + SYA_31-33_DDD	76.7	
DP47 VH T28D + SYA_31-33_DDD + S35D	78.6	
